Holding throughout (experiment): Catalytic efficiency with oligosaccharides, HPAEC (Man5A-TM1)
Common to all, as to assay type: biochemical, Caldanaerobius polysaccharolyticus
Holding throughout (details): other: Man5A-TM1 0.3 μM, oligosaccharide 30 μM, citrate buffer 50 mM, pH 5.5, 5 min, triplicate

Substrate in data set [1]: OC[C@H]1O[C@@H](O[C@H]2[C@H](O)[C@@H](O)[C@H](O[C@H]3[C@H](O)[C@@H](O)[C@H](O[C@H]4[C@H](O)[C@@H](O)C(O)O[C@@H]4CO)O[C@@H]3CO)O[C@@H]2CO)[C@H](O)[C@@H](O)[C@@H]1O
The method, then:
(§1) Cloning, expression, and purification of Man5A-TM1, Man5A-TM2 and Man5B. C. polysaccharolyticus was cultured in TYG medium and DNA was isolated from mid-log cultures and purified using the Qiagen DNeasy Blood and Tissue kit with an integrated RNase treatment step. The genome of C. polysaccharolyticus was partially sequenced by the W. M. Keck Biotechnology Center at the University of Illinois at Urbana-Champaign. A Newbler assembly was generated which is comprised of ½ plate of FLX PE 454 data and ½ plate of 8 kb paired-end GSFLX Titanium data using a Genome Sequencer instrument from 454 Life Sciences (Branford, Conn.). The partial genome sequence was uploaded onto the Rapid Annotation using Subsystem Technology (RAST) server (Aziz et al., BMC Genomics, 9:75, 2008). Auto-annotation of the C. polysaccharolyticus partial genome sequence identified ORF0760 as a gene predicted to encode a bifunctional β-D-mannanase/endoglucanase (Man5B). Man5A was previously identified in a recombinant phage library of C. polysaccharolyticus genomic DNA, which was screened for endoglucanase activity (Cann et al., J Bacteriol, 181:1643, 1999) and the full sequence of this gene was also identified in the partial genome sequence for C. polysaccharolyticus.
(§2) The DNA sequence corresponding to man5B was amplified by the PicoMaxx high fidelity PCR kit using genomic DNA as the template with the primer set Man5B-Forward and Man5B-Reverse (Table 1-1). The primers were engineered to incorporate a 5′-[…] (SEQ ID NO: 54) extension in Man5B-F and a 5′-[…] (SEQ ID NO: 55) extension in Man5B-R, which facilitated subsequent directional cloning. The resultant man5B amplicon was then digested with T4 DNA polymerase exonuclease activity, annealed with a similarly digested pET-46b vector and introduced into E. coli JM109 by electroporation. Man5A-TM1 was amplified using genomic DNA as template with primers Man5A-TM1-F and Man5A-TM1-R (Table 1-1). The primer sets for Man5A-TM1 and Man5A-TM2 were designed to include 5′-NdeI and 3′-XhoI restriction sites for subsequent directional cloning. The resulting amplicons were then cloned into the pGEM-T vector via TA-cloning and subcloned in-frame with the hexahistidine (His6) encoding sequence of a modified pET-28a expression vector via its NdeI-XhoI polylinker site. The truncated protein Man5A-TM2 originally named ManA-SLH-CBD was cloned as described in a previous study (Cann et al., J Bacteriol, 181:1643, 1999). Expression of each of the resulting gene constructs yielded fusion proteins containing an N-terminal polyhistidine tag sequence to facilitate affinity purification via metal chelate chromatography. The resulting plasmid constructs pET46-Man5B, pET28a-Man5A-TM1, and pET-28a-Man5A-TM2 were sequenced to confirm the integrity of the cloned genes (W. M. Keck Center for Comparative and Functional Genomics at the University of Illinois at Urbana-Champaign).
(§3) The plasmid constructs were then introduced into E. coli BL-21 CodonPlus (DE3) RIL competent cells by heat shock, and grown overnight in lysogeny broth (LB) agar medium supplemented with ampicillin (100 μg/mL) and chloramphenicol (50 μg/mL) at 37° C. After 12 h, single colonies were selected and used to inoculate fresh LB (10 mL) supplemented with the antibiotics above at the same concentrations, followed by culturing with aeration for 8 h at 37° C. The pre-cultures were then inoculated into fresh LB (1 L) supplemented with ampicillin and chloramphenicol and the cultures were incubated at 37° C. with vigorous aeration (225 rpm/min). The cultures were grown to an optical density of 0.3 at 600 nm, and the temperature was shifted to 16° C. and gene expression was induced by the addition of 0.1 mM isopropyl β-D-thiogalactopyranoside (IPTG). […]

Substrate in data set [2]: OC[C@H]1O[C@@H](O[C@H]2[C@H](O)[C@@H](O)[C@H](O[C@H]3[C@H](O)[C@@H](O)[C@H](O[C@H]4[C@H](O)[C@@H](O)[C@H](O[C@H]5[C@H](O)[C@@H](O)C(O)O[C@@H]5CO)O[C@@H]4CO)O[C@@H]3CO)O[C@@H]2CO)[C@H](O)[C@@H](O)[C@@H]1O
The method, then:
as §1, §2, §3

Substrate in data set [3]: OC[C@H]1O[C@@H](O[C@H]2[C@H](O)[C@@H](O)[C@H](O[C@H]3[C@H](O)[C@@H](O)[C@H](O[C@H]4[C@H](O)[C@@H](O)[C@H](O[C@H]5[C@H](O)[C@@H](O)[C@H](O[C@H]6[C@H](O)[C@@H](O)C(O)O[C@@H]6CO)O[C@@H]5CO)O[C@@H]4CO)O[C@@H]3CO)O[C@@H]2CO)[C@H](O)[C@@H](O)[C@@H]1O
The method, then:
as §1, §2, §3

Substrate in data set [4]: OC[C@H]1O[C@@H](O[C@H]2[C@H](O)[C@H](O)[C@H](O[C@H]3[C@H](O)[C@H](O)[C@H](O[C@H]4[C@H](O)[C@H](O)C(O)O[C@@H]4CO)O[C@@H]3CO)O[C@@H]2CO)[C@@H](O)[C@@H](O)[C@@H]1O
The protocol: as §1, §2, §3

Substrate in data set [5]: OC[C@H]1O[C@@H](O[C@H]2[C@H](O)[C@H](O)[C@H](O[C@H]3[C@H](O)[C@H](O)[C@H](O[C@H]4[C@H](O)[C@H](O)[C@H](O[C@H]5[C@H](O)[C@H](O)C(O)O[C@@H]5CO)O[C@@H]4CO)O[C@@H]3CO)O[C@@H]2CO)[C@@H](O)[C@@H](O)[C@@H]1O
The method, then:
as §1, §2, §3

Substrate in data set [6]: OC[C@H]1O[C@@H](O[C@H]2[C@H](O)[C@H](O)[C@H](O[C@H]3[C@H](O)[C@H](O)[C@H](O[C@H]4[C@H](O)[C@H](O)[C@H](O[C@H]5[C@H](O)[C@H](O)[C@H](O[C@H]6[C@H](O)[C@H](O)C(O)O[C@@H]6CO)O[C@@H]5CO)O[C@@H]4CO)O[C@@H]3CO)O[C@@H]2CO)[C@@H](O)[C@@H](O)[C@@H]1O
The protocol: as §1, §2, §3

B1: Caldanaerobius polysaccharolyticus endo-β-mannanase Man5A truncation mutant Man5A-TM1, SEQ ID NO: 28 (Caldanaerobius polysaccharolyticus) (protein)
chain: AGTSGDGRFHVVGNKIVDPDGKDFIIKGVNIQGYRSWEKRSVLQDVHLIADVWKFNTVRLNCFIGQNNWGEGTGANNDIDAIIKAFTAKKVVVEIDLHDTTGYPPLSNPPPAPGQPSLDQAIAWFKELAAKYKDNPYVWFNTMNEPGSSTAPLDPQWKVANEEIIKAIRSTGADNIIVVDGWSYANEGIEQNTPTVDEKRSAVLTYGQDLLNADSAKNTIFAFHNYNEGDIQKKVEDYIDRANAKGLYVFMEEYGKDYSDAAKEGVKSGLQAVMNKGAGRIYWNWDGYDLYDLTSGTGRGSGWEINKTDGSKPTNLSWVGDKIWDDNHGITPTFDDQNPKVDLALERLIANNNGFKAGDKVQFTTFLRNSGDLPIGKDSKVVVKFYVDGVQLGDPVEISGGIAVGQRIPVTSPELTVSKTDFTVKAVIDSSSTYADGAEDAVIENNWIEAAFNSTAPSSGYELVVTGIKITPDTVKEGDYVQAQVTVANQGPEATPVTNIIGWFYVNGYYYTLDDAAKSCAEQDNVTLKPGESITLSTKVKYRAAAPFNFSFVLENLYADDQNQSNNSITVNVPVKMGEGGVNMVSNPGFEDGLDSWQDWQQDMSAVPEAAHNGALGLKIGGGKAAGGGQDIPLKPNTTYILGAWAKFDSKPAGTFDVVVQYHLKDANNTYVQHILNFNETDWTYKQLLFTTPDVFGSTPQLALWKGDTSKANLYVDDVYLVEVSNLIVNGTAENGMDGWPDWGYPVSAVPEAAYGGTKGFKLSGGKQAGMGQKVALKPNTTYILGAWGKFTAKPGTYCDVIVQYHLKDANNTYVQNILRFTETDWTYKQVVFTTPDAFGSDPEFVLWKDDASNADFYADNITLVEV
B1: the kcat/Km in data set [1] was 11000 ± 2000 M⁻¹ s⁻¹; in data set [2], 9300 ± 2000 M⁻¹ s⁻¹; in data set [3], 20000 ± 2000 M⁻¹ s⁻¹; in data set [4], 17000 ± 4000 M⁻¹ s⁻¹; in data set [5] it was 33000 ± 3000 M⁻¹ s⁻¹; in data set [6], “(1.2 ± 0.2) × 10^2 mM^−1 s^−1”.

A word on the kcat/Km: it is the turnover number divided by the Michaelis constant.

These data come from US8357518B2, “Thermostable enzymes for the hydrolysis of mannan-containing polysaccharides” (The Board of Trustees of the University of Illinois, priority 2010, dated 2013).
